Measured values reported in article PMC8725159, “CryoEM analysis of small plant biocatalysts at sub-2 Å resolution” (Acta Crystallographica. Section D, Structural Biology, 2022).
Where “and” joins values, the source holds several entries; their conditions need not be identical. Equal entries are not always repeated.

B1: borneol dehydrogenase 2 from Salvia officinalis (SoBDH2) (enzyme)
chain: MATGAANVESPQSLPLRLLGRVALVTGGSSGIGESIVLLFRKHGAKVCIADVQDNQGQRLCETLGGSSDIAFCHCDVTIEDDVKRAVDFTVDKFGTLDIMVNNAGVSGPPCPDIRDFELSAFDRVFDINVRGVFIGMKHAARIMIPAKKGSIISISSVASTMGGLGPHAYTGSKHAVLGLTKNVAAELGKHGIRVNCVSPYAVATSLALAHLPEAERTEDTWDDFRRFVADNANLQGVELTMEDVANAVVFLASDEARYVSGMNLMVDGGFTSTNHALQVFRP
notes: borneol-type dehydrogenase SoBDH2 from Salvia officinalis, GenBank MT525099; synthetic gene codon-optimized for E. coli; theoretical molecular mass with the His6 tag 32.2 kDa; Homotetramer with D2 symmetry in cryoEM; also called Salvia officinialis borneol dehydrogenase 2; source: E. coli BL21-RIL, purified (Ni-NTA, SEC); not shown: His6, N-terminal, kept

Tests used:
[1] = target: borneol dehydrogenase 1 from Salvia rosmarinus (SrBDH1) (Salvia rosmarinus); assay: SEC-MALS; Superdex 200 Increase 10/300 column, 18°C, miniDAWN TREOS detector with refractive-index detector
[2] = target: borneol dehydrogenase 1 from Salvia rosmarinus (SrBDH1) (Salvia rosmarinus); assay: cryo-EM structure; single-particle cryoEM, 1 mg/ml on UltrAuFoil R1.2/1.3 grids, Titan Krios 300 kV, Falcon 3EC, D2 symmetry imposed
[3] = target: the molecule itself; assay: SEC-MALS; Superdex 200 Increase 10/300 column, 18°C, miniDAWN TREOS detector with refractive-index detector

Molecule	stoichiometry N [1]	stoichiometry N [2]	stoichiometry N [3]
borneol dehydrogenase 1 from Salvia rosmarinus (SrBDH1) (enzyme)	4	4	–
B1	–	–	8 and 4
